Here are results for 40 sequences from the nanobody polyreactivity screen of Harvey et al. (2022).

This data set is described as follows: yeast display, Sf9 membrane polyspecificity reagent, FACS + sequencing; frameworks hold sequencing errors. The gist of the method:
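Galactose induction of a Saccharomyces cerevisiae BJ5465 synthetic nanobody display library ran 36–48 hours. The cells were then stained for 1 hour at 4 °C with 10% biotinylated, detergent-solubilized Sf9 membrane reagent, pulled down on streptavidin microbeads and FACS-sorted into low and high (top ~1%) gates on expression and reagent-binding fluorescence. Labels for polyreactivity follow the gate of origin.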
As for “QVQLVESGGGLVQAGGSLRLSCAASGSTFRLYAIGWYRQAPWKERELDAAISSGGTTKYADSVKGRFTISRDNAKKTVYLQMNRLKPEDTAVYYCNAVYHWGNPGEYATLPRYDYWGQGTQVTVSS”, the “polyreactivity (PSR sort gate)” value is recorded as “high polyreactivity”. Next, “QVQLVESGGGLVQAGGSLRLSCAASGRTFYYNTMGRNIPAPGKERELVATISRIGGSTYYADSVKGRFTISRDNAKNTVYLQMNSLKPEDTAVYYCAKGRSLNGRPPVVYWQLFYYWGQGTEVTVSS”: “high polyreactivity”; “QVQLVESGGGLVQAGGSLRLTCAASGGTLDYNAMGWYRQAPGKERELVAPISAGADGTYYADSVKGRFTISRDNAKNTVYLQMNSLKPEDSAVYYCAARPKNNWARTNFGIRYNDWGQGTQVTVSS”: “high polyreactivity”.

Consider “QVQLVESGGGLVQAGGSLRLSCADSGSIFYRYAMGWYRQAPGKERELGAAISQSGGSTYYADSVKGRFTISRDNAKNTVYLQMNSLKPEDTAVYYCQLIRRGHDYWGQGTQVTVSS”, for which the “polyreactivity (PSR sort gate)” value is “high polyreactivity”. For “QVQLVESGGGLVQAGGSLRLSCAASGRTLLPNAMGWYRQAPGKERELVADISTSDGSTRYADSVKGRFTISRDNAKNTVYLQMNSLKPEDTAVYYCAAGSEYYSSGGVRFSFYYWGQGTQVTVSS” the value was “low polyreactivity”. Next, “QVQLVESGGGLVQAGGSLRLSCAASGFTFQYYAMGWYRQAPGKERELVAAISWSGGSTYYADSVKGRFTISRDNAKNTVYLQMNSLKPEDTAVYYCAAAPYTYPLGFDYWGQGTQVTVSS”: “high polyreactivity”; “QVQLVESGGGLVQAGGSLRLSCAASGRIFRSNAMGWYRQAPGKERELVAAINYRGDRTYYADSVKGRFTISRDNAKNTVYLQMYSLKPEDTAVYYCNARRYSIPVSAGGYDSWGQGTQVTVSS”: “high polyreactivity”. Next, “QVQLVESGGGLVQAGGSLRLSCAASGRIFFDYAMGWYRQAPGKERELVAVITSSGSSTYYADSVKGRFTISRDNAKNTVYLQMNSLKPEDTAVYYCNAARLYSGLWYGYDYWGQGTQVTVSS”: “high polyreactivity”. In the case of “QVQLVESGGGLVQAGGSLRISCAASGGIFQRYDMGWYRKATGKERELVAAITRSGGSTYYADSVKGRFTISRDNAKNTVYLQMNSLKPEDTAVYYCAARTYGCYEYWGQGTQVTVSS”, the “polyreactivity (PSR sort gate)” value is listed as “high polyreactivity”. Consider “QVQLVESGGGLVHAGGSLRLSCAASGFTIPYYAMGWYRQAPGKERELVAAIRISGGSTYYADSVKGRFTISRDNAKNTVYLQMNSLKPEDTAVYYCAADYRYRSRFYYWGQGTQVTVSS”, for which the “polyreactivity (PSR sort gate)” value is listed as “low polyreactivity”.

In the case of “QVQLVESGGGLVQAGGSLRLSCVASGRTLNYNVMGWYRQAPGKERELVAAISWSGGSTYADSVKGRFTISRDNAKNTVYLQMNSLKPEDTAVYYCNKRFTTRVNRRPVYYWGQGTQVTVSS”, the “polyreactivity (PSR sort gate)” value was “low polyreactivity”. For “QVQHVESGGGLVQAGGSLRLSCAASGFTFAIYGKGWYRQAPGKERELVAAINWSGGRTYYADSVKGRFTISRDNAKNTVYVQMQSLKPDDTAVYYCAARYVSRWYDYEFWGQGTQVTVSS” the value was “high polyreactivity”; for “QVQLVESGGGLVQAGGSLRLSCAASGRTFLINAMGWYRQAPGKERELVAAINYGGGSTYYADSVKGRFTISRDNAKNTVYLQMKSLKPEDTAVYYCSTEYYDTYVGSYSYWGAKYGSWGQGTQVTVSS”, “low polyreactivity”; for “QVQLVESGGGLVQAGGSLRLSCAASGRNFPAYAMGWYRQAPGKERELVASIRRGGITYADSVKGRFTISRDNAKNTVYLQMNRLKPEDSSGYFCNADFRGWGYHMDYWGQGTQVTVSS”, “low polyreactivity”. Next, “QVQLVESGGGLVQAGGSLRLSCAASGSILRRNTMGWYRQAPGKERELVAAINKSGGSTYYADSVKGRFTISRDNAKNTVYLQMNSLKPEDTAVYYCNRDNYYGTKYDYWGQGTQVTVSS”: “low polyreactivity”. Next, “QVQLVESGGGLVQAGGSLRLSSAASGSIFRWYAMGWYRQAPGKERELVAAISRGGRTNYADSVKGRFTISRDNAKNTVYLQMNSLKPEDTAVYYCNKVLRNYSSTGVISVLTDYDYWGQGTQVTVSS”: “high polyreactivity”.

For the sequence “QVQLVESGGGLVQAGGSLRLSCAASGFTIQFYTMGWYRQAPGKERELVAAISYNGDSTYYADSVKGRFTISRDNAKNTVYLQMNSLKPEDTAVYYCNTDLGTIYYYGYDYWGQGTQVTVSS”, the “polyreactivity (PSR sort gate)” value is “high polyreactivity”. Next, “QVQLVESGGGLVQAGGSLRLSCAASGRTFARYAMGWYRQAPGKERELVAAINRSGGSTYYADSVKGRFTISRDNAKNTVYLQMNSLKPEDTAVYYCNARDPYTYRYSYYYWGQGTQVTVSS”: “high polyreactivity”; “QVQLVESGGGLVQAGGSLRLSCAASGRTFVKNAMGWYRQAPGKERELVAVISQSGGSTYYADSVKGRFTISRDNAKNTVYLQMNCLKPEDTAVYYCAARYSYYRQGDSWYNYNYWGQGTQVTVSS”: “high polyreactivity”. For “QVQLVESGGGLVQAGGSLRLSCAATGGIFDYYAMGWYRQAPGKERALVAAIRGGGSTNYADSVKGRFTISRDNAKNTVYLQMNSLKPEDTAVYYCAKDSPFTSVTVLAPIIYDSWGQGTQVTVSS”, the “polyreactivity (PSR sort gate)” value is “low polyreactivity”. For “QVQLVESGGGLVQAGGSLRLSCAASGSILDPNAMGWYRQAPGKERELVASISRGDNTYYADSVKGRFTISRDNAKNTVYFQMNSLKPEDTAVYDCAADYSWVVWHDYWGQGTQVTVSS”, the “polyreactivity (PSR sort gate)” value is “low polyreactivity”. For “EVQLVESGGGLVQPGGSLRLSCAASGYIYSRYRMGWYRQAPGKGREFVAAISGGSSTTYADSVKGRFTISRDNSKNTVYLQMNSLRAEDTAVYYCAAYKIDSDPRVYWGQGTQVTVSS” the value was “low polyreactivity”; for “QVQLVDSGGGVVQAGGSLRLSCPASGRTFRGYAMGWYRQAPGKERELVAAISSGGSTYYADSVKGRFTISRDNAKNTVYLQMNSLKPEDTAVYYCAAGGPSTLDDYWGQGTQVTVSS”, “low polyreactivity”; for “QVQLVESGGGLVQAGGSLRLSCAASGRIFYKYAMGWYRQAPGKERELVAGITRSGANTYYADSVKGRFTISRDNAKNTVYLQMNSLKPEDTAVYYCAVYIPRGGRSGYWGQGTQVTVSS”, “high polyreactivity”. With “QVQLVESGGGLVQAGASLRLSCAASGSTFYFYTMGWYRQAPWKERELVAAITRDGSTYYADSVKGRFTISRDNAKNTVYLQMNSLKPEDTAVYYCNALRWAYKFSAYYYWGQGTQVSVSS”, the “polyreactivity (PSR sort gate)” value is “low polyreactivity”. Next, “QVQLVESGGGLVQAGGSLRLRCAASGSTFYLNAQGWYRQATGKEREFVAAITVSGGSTYYADSVKARFTISRDNAKNTVYLKMNSLKPEDTAVYYCARELLSPTYQRWYYYWGQGTQVTVSS”: “low polyreactivity”; “QVQLVESGGGLVQAGGSLRLSCAASGSIFGAYAMGWYRQAPGKERELVAAISWRDGSTYYADSVKGRFTISRDNAKNTVYLQMNSLKPEDTAVYYCAAEYVYIFYDSDYWGQGTQVTVSS”: “high polyreactivity”. Take “QVQLVESGGGLVQAGGSLRLSCAASGFTFRRNAMGWYRQAPGKEWEFVAAITGRGTGTYYADSVKGRFTISRDNAKNTVYLQMYILKPEDTAGYYCNDDPVRYLFNRYDYWGQGTQVTVSS”: the “polyreactivity (PSR sort gate)” value was “high polyreactivity”.

As for “QVQHVESGGGLVQAGGSLRLSCAASGIIFGSNVMGWYRQAPGKERELVAAISYSGASTYYADSVKGRFTISRDNAKNTVYLQMNSLKPEDTAVYYCAADGHRNGYYYHEYDSWGQGTQVTVSS”, the “polyreactivity (PSR sort gate)” value is reported as “low polyreactivity”. On to “QVQLVESGAGLVQAGGSLRLSCAASGRIFRVYAMGWYRQAPGQERELVAAITSGGTTYADSVKGRLTISRDNAKKTVYLQMNILKPEDTAVYYCAARYYIHRGYDYDYWGQGTQVTVSS”, for which the “polyreactivity (PSR sort gate)” value is “high polyreactivity”. Next, “QVQHVESGGGLVQPGGSHRLSCAASGSTFQIYAMRWYRQAPGKVRELVAAITSSSSTNYADSVKGRFTISRDNAKNTDYLQMNSLKPEDPAVYYCAADVSRRCNWYDYWGQGTQVTVSS”: “low polyreactivity”; “QVQLVESGGGLVQAGGSLRLSCAASGITFYEYAMGWYRQAPGKEREFVAAIDDGDSSTYYADSVKGRFTISRDNAKNTVYLQMHSLKPEDTAVYYCNADPYYVYSLNWGDFWGQGTQVTVSS”: “low polyreactivity”; “QVQLVESGGGLVQAGGSLRLSSAASGFTLIPNGMGWYRQAPGKEREFVAAISGTGGRTSYADSVKGRFTISRDNAKNTVYLQMHSLKPEDTAVYYCNARVLVYSERAYKYYLLYDYWGQGTQVTVSS”: “high polyreactivity”. For “QVQLVDSGGGLVQAGGSLRLSCAASGSIFVPYAMGWYRQAPRKERELVAAISWSGGSTNYADSVKGRFTISRDNAKNTVYLQMNSLKPEDTAVYYCNARWSSWYIHSHYYYWGQGTQVTVSS” the value was “high polyreactivity”; for “QVQLVESGGGLVQAGGSLRLSCAASGRTFSVNAMGWYREAPGKEREFVAGISYSGNTYYADSVKGRVTISRDNAKKTAYLQMNSLKPEDTAVYYCAARRGYNDGYWGQGTQVTVSS”, “high polyreactivity”. Next, “QFQLVESGGGLVQAGGSLRLSCAASGFIFTNYAMGWYRQAPGKEWELVAAINRSGGRTYYADSVKGRFTISRDNAKNTVYLQMNSLKPEDNAVYYCAAKGVSYRPAYDYWGQGTQVTVSS”: “high polyreactivity”; “QVQVVESGGGLVQAGGSLRLSCAASGRIYQYYDMGWYRQAPGKERELVATITSGGSTNYADSVKGRFTISRDNAKNTVYLQMNSLKPEDTAVYYCAALAYTASDYQPYDATEYNYWGQGTQVTVSS”: “low polyreactivity”. Turning to “QVQLVESGGGLVQAGGSLRLSCAASGYTFLGNAMGWYRQAPGKERELVAAISSGGTTYYADSVKGRFTISRDNAKNTVYLQMNSMKPEDTSVYYCADDRVGLSSGYDFWGQGTQVTVSS”, the “polyreactivity (PSR sort gate)” value is “low polyreactivity”. Next, “QVQLVESGGGLVQAGGSLRLSCAASGSIFGFYAMGLYIQEPGKERELVAAITSGDSTHYADSVKGRFTISRDNAKNTVYLQMNSLKPEDTAVYYCATEYLYVDFFIRYDYWGQGTQVTVSS”: “low polyreactivity”; “QVQLVESGGGLVQAGGSLRLSCAASGRIFRVYTMGWYRQAPGKERELVAGITWDGGGTYYADSVKGRFTISRDNAKNTVYLQMNSLKPEDTAVYYCNAVVQGFYLAWLYTLDSWGQGTQVTVSS”: “low polyreactivity”.
